B1: Fab-CH23-CH23 (tandem CH23 construct comprising two engineered Fc polypeptides) (Fc fusion)
heavy: EVQLVESGGGLVQPGGSLRLSCAASGFTFSNYDMYWVRQTTGKGLEWVSAIGTAGDTYYPGSVKGRFTISRENAKNSLYLQMNSLRAGDTAVYYCAREKSSTSAFDYWGQGTLVTVSSASTKGPSVFPLAPSSKSTSGGTAALGCLVKDYFPEPVTVSWNSGALTSGVHTFPAVLQSSGLYSLSSVVTVPSSSLGTQTYICNVNHKPSNTKVDKKVEPKSCDKTHTGGGGSGGGGSGGPSVFLFPPKPKDTLMISRTPEVTCVVVDVSHEDPEVKFNWYVDGVEVHNAKTKPREEQYNSTYRVVSVLTVLHQDWLNGKEYKCKVSNKALPAPIEKTISKAKGQPREPQVYTLPPSREEMTKNQVNLTCLVKGFYPSDIAVEWESNGQPENNYKTTPPVLDSDGSFFLNSTLTVDKSRWQQGNVFSCSVMHEALHNHYTQKSLSLSPGGGGSGGGGSGGGGSGGGGSGGPSVFLFPPKPKDTLMISRTPEVTCVVVDVSHEDPEVKFNWYVDGVEVHNAKTKPREEQYNSTYRVVSVLTVLHQDWLNGKEYKCKVSNKALPAPIEKTISKAKGQPREPQVYTLPPSREEMTKNQVNLTCLVKGFYPSDIAVEWESNGQPENNYKTTPPVLDSDGSFFLNSTLTVDKSRWQQGNVFSCSVMHEALHNHYTQKSLSLSPGK
light: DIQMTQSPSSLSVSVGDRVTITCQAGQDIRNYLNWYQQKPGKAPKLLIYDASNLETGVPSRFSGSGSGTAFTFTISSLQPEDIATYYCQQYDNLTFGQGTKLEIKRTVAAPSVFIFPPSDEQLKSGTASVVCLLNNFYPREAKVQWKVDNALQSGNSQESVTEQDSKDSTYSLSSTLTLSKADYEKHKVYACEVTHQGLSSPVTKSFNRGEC
modifications: N-linked glycans at Asn297 (natural) and engineered Asn364 and Asn407 (EU numbering) in each of the two CH23 units
notes: Made in CHO cells; also called Fab-CH23-4XGS-CH23; tandem CH23-CH23
B2: Fab-CH23-HEK (Fab-CH23 [N364/N407] produced from HEK293 transient expression system) (Fc fusion)
heavy: EVQLVESGGGLVQPGGSLRLSCAASGFTFSNYDMYWVRQTTGKGLEWVSAIGTAGDTYYPGSVKGRFTISRENAKNSLYLQMNSLRAGDTAVYYCAREKSSTSAFDYWGQGTLVTVSSASTKGPSVFPLAPSSKSTSGGTAALGCLVKDYFPEPVTVSWNSGALTSGVHTFPAVLQSSGLYSLSSVVTVPSSSLGTQTYICNVNHKPSNTKVDKKVEPKSCDKTHTGGGGSGGGGSGGPSVFLFPPKPKDTLMISRTPEVTCVVVDVSHEDPEVKFNWYVDGVEVHNAKTKPREEQYNSTYRVVSVLTVLHQDWLNGKEYKCKVSNKALPAPIEKTISKAKGQPREPQVYTLPPSREEMTKNQVNLTCLVKGFYPSDIAVEWESNGQPENNYKTTPPVLDSDGSFFLNSTLTVDKSRWQQGNVFSCSVMHEALHNHYTQKSLSLSPGK
light: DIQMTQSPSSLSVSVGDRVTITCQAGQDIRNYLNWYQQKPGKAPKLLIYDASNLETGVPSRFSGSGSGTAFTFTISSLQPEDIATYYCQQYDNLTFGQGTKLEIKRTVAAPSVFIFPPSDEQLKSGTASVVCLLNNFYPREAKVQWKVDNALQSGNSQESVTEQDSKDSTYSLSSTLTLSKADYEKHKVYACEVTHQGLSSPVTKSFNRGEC
modifications: N-linked glycans at Asn297 (natural) and engineered Asn364 and Asn407 (EU numbering), HEK293 glycoform
notes: Same construct as Fab-CH23, made in HEK293 cells instead of CHO cells
B3: Fab-CH23 (Fab-CH23-N364/N407), Fab of an anti-KLH antibody fused to CH23 (Fc fusion)
heavy: B2 heavy
light: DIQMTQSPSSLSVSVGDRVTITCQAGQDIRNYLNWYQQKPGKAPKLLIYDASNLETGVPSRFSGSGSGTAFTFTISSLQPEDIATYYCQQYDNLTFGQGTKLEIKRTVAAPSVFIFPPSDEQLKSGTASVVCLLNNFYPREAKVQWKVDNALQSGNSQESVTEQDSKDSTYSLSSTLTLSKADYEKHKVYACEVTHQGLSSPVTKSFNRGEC
modifications: N-linked glycans at Asn297 (natural) and engineered Asn364 and Asn407 (EU numbering)
notes: also called Fab-monoFc
B4: Fab-CH23[M428L/N434S] (FcRn enhancement variant) (Fc fusion)
heavy: B2 heavy with M429L, N435S
light: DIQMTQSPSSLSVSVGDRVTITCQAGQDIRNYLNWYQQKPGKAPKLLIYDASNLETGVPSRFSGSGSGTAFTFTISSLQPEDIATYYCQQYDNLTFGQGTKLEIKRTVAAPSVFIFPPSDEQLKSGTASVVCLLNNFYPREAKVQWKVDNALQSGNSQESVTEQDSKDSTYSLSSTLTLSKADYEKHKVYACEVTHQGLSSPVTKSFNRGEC
modifications: N-linked glycans at Asn297 (natural) and engineered Asn364 and Asn407 (EU numbering)
notes: Made in CHO cells; also called Fab-CH23 [M428L/N434L]

Positions count from the first letter of the chain named. In names and notes the source's numbering stands.

T1 sequence (Q61559 22-297): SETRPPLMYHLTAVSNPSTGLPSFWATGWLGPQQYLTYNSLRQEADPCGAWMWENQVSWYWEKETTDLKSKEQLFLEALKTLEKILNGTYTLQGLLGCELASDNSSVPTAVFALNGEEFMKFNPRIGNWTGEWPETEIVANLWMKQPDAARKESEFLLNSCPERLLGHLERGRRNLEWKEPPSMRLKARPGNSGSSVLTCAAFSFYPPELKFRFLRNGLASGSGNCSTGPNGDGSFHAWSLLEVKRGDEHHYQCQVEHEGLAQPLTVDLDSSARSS

One test has as its target T1, Mouse FcRn protein (mouse, UniProt Q61559 22-297).
T1 construct: Bought protein; called soluble in the 1-to-1 assay and amine-coupled to the chip in the avidity and pH-switch assays; also called soluble mouse FcRn protein; neonatal Fc receptor
Kind of test: SPR avidity format: FcRn localized on the chip surface. Here is the method: (§1) The FcRn binding assays were carried out using a surface plasmon resonance (SPR) biosensor, Biacore 3000 (Biacore, Uppsala, Sweden). The sensor chip CM5, surfactant P20, N-ethyl-N-(3-dimethylaminopropyl)carbodiimide (EDC), N-hydroxysuccinimide (NHS), and 1 M ethanolamine (pH 8.5) were purchased from GE Healthcare (Piscataway, N.J.). The SPR experiments were conducted at 25° C. in PBS buffer (pH 6.0) with 0.005% P20. A Mouse FcRn protein was purchased from ARVYS Proteins, Inc. (Stamford, Conn.). All the experiments were repeated three times.
(§2) Avidity Assay: —In order to assess the avidity of analyte (molecule in mobile phase), the SPR-based “avidity assay format” was performed as previously described. See, e.g., Zalevsky et al., Nature Biotech. 28, 157-159; Yeung et al., J. Immunol. 182, 7663-7671 (2009); and Suzuki et al., J. Immunol. 184, 1968-1976 (2010). That is, mouse FcRn protein was immobilized on a CM5 sensor chip by the amine coupling method as described above. The equilibrium binding was measured by injecting 30 μL, of Fab-monoFc variants over the FcRn surface at flow rate of 2 μL/min. The sensor surfaces were regenerated by running 100 mM tris-HCl, pH 8.0 for 1 min.
Take B1: the “fold higher affinity than Fab-CH23 (avidity assay)” value was approximately 40 fold.

The target of a further test is T1, Mouse FcRn protein. The test is described as follows: SPR 1-to-1 format: variant amine-coupled to CM5 chip, soluble mouse FcRn injected, pH 6.0, steady state. The method, then:
as §1
1-to-1 binding Assay—Immobilization of engineered N-glycosylated Fc variants or Fab-mono engineered N-glycosylated Fc variants on a CM5 sensor chip was conducted by the amine coupling method. Briefly, 20 μM protein solution was diluted 20 times in 10 mM acetate (pH 4.5) and injected onto a biosensor surface which had been pre-activated with a 20 uL injection of 1:1 mixture of 200 mM EDC and 50 mM NHS, followed by the injection of 1 M ethanolamine-HCl (pH 8.5). For reference surface, one flow cell was activated by the EDC-NHS mixture and deactivated by ethanol amine without protein. The equilibrium binding was measured by injecting 150 uL of soluble mouse FcRn protein at flow rate of 5 uL/min. The sensor surfaces were regenerated by running PBS buffer (pH 7.2) for 1 min. We observed that all the binding curves of each concentration reached the plateau at the end of injection (30 min).
Molecule B1 showed a Kd of 250 nM.
The molecule B2 showed a Kd of 230 nM.
On the same count and under the same terms, with B3 the figure was 250 nM.
Same read-out and setting: with B4 the figure was 68 nM.

Another test has as its target T1, Mouse FcRn protein. Kind of test: SPR pH-switch assay: mouse FcRn immobilised, variant bound at pH 6.0, percent bound in the dissociation phase at neutral pH against pH 6.0. The method, then:
as §1
pH-Switch Assay: In order to evaluate the efficiency of dissociation of Fab-monoFc variants from FcRn at neutral pH, the “pH-switch assay” modified from the method that was previously reported was employed. See, e.g., Wang et al., Drug Metab. Dispos. 39, 1469-1477 (2011). In this assay, mouse FcRn protein was immobilized on a CM5 sensor chip by the amine coupling method. The binding was measured by injecting 100 uM of Fab-monoFc variants in running buffer (PBS, pH 6.0) followed by injection of either running buffer (PBS, pH 6.0) or neutral buffer (PBS, pH 7.2) alone over the FcRn surface at flow rate of 50 μL/min.
In the case of B1, the “% bound” value was found to be 14%.
Same read-out and setting: the result for B2 reads 1.1%; that for B3, 5.6%; that for B4, 20%.

In the next test the target is T1, Mouse FcRn protein. Kind of test: SPR avidity format: mouse FcRn immobilised on CM5 chip, variant injected, pH 6.0, steady state. The method, then: as §1, §2
Molecule B1 registered a Kd of 4.5 nM.
Still for that read-out and setting: the result for B2 reads 180 nM; that for B3, 180 nM; that for B4, 35 nM.
